According to article PMC5588873 (Cell reports, 2017):

Biological target: TNRC6A (human (endogenous in HeLa), UniProt Q8NDV7 1-1962)
Assay: affinity purification with mass spectrometry

Sequence of TNRC6A (Q8NDV7 whole entry): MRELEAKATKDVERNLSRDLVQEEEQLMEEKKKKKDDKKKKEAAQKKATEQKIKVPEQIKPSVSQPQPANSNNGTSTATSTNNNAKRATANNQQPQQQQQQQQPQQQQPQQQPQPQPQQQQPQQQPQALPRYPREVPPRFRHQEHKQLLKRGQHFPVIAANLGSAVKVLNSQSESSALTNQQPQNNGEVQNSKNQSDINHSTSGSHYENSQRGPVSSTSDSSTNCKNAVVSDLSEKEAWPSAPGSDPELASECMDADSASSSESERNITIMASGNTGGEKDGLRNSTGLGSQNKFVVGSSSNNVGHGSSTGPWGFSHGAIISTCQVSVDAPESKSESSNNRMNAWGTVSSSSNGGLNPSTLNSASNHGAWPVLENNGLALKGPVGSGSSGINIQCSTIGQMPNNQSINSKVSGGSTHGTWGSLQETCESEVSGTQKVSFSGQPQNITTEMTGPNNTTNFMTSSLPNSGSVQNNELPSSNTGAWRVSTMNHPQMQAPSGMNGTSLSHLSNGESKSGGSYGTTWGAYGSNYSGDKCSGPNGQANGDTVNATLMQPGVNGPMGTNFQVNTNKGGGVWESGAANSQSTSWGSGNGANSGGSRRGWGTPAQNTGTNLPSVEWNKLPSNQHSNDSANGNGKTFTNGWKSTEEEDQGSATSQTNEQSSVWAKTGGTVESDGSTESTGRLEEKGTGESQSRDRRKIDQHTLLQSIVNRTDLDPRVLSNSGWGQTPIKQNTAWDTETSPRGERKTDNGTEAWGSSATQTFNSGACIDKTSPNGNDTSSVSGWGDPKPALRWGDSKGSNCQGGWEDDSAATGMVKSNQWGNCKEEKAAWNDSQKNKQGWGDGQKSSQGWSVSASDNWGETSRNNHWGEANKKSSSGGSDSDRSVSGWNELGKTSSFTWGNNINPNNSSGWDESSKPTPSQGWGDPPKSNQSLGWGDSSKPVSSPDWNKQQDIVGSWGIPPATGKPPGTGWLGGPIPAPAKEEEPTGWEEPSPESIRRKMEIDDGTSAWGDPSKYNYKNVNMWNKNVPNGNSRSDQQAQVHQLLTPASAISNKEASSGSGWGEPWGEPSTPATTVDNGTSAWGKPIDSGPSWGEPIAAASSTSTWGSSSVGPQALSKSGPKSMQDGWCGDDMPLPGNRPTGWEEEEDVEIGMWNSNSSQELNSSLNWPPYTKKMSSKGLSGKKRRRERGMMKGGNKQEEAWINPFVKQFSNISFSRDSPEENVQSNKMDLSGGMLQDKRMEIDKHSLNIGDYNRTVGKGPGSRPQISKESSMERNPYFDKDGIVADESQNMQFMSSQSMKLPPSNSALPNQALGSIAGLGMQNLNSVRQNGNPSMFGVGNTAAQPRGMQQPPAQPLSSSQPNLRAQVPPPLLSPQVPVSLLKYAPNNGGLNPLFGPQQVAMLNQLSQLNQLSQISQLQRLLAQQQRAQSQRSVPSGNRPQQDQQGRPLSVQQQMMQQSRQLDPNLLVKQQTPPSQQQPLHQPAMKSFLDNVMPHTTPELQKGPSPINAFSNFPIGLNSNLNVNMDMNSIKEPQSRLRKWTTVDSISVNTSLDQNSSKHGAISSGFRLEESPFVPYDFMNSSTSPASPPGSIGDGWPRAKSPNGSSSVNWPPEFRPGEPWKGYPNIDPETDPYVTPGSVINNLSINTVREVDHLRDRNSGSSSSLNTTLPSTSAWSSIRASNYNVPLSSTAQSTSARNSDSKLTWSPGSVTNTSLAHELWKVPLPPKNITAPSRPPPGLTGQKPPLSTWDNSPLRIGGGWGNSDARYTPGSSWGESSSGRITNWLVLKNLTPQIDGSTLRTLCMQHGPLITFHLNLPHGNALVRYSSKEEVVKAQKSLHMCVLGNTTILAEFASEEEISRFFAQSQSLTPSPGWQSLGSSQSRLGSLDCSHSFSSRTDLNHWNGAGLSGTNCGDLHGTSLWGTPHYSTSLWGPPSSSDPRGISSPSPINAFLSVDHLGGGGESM

stoichiometry N	Binder
2.2 per TNRC6A (=1)	AGO2 (natural protein) not shown
~1.52 per TNRC6A (=1)	TP53BP1 (natural protein, human (endogenous in HeLa), UniProt Q12888 1-1972, looked up) MDPTGSQLDSDFSQQDTPCLIIEDSQPESQVLEDDSGSHFSMLSRHLPNLQTHKENPVLDVVSNPEQTAGEERGDGNSGFNEHLKENKVADPVDSSNLDTCGSISQVIEQLPQPNRTSSVLGMSVESAPAVEEEKGEELEQKEKEKEEDTSGNTTHSLGAEDTASSQLGFGVLELSQSQDVEENTVPYEVDKEQLQSVTTNSGYTRLSDVDANTAIKHEEQSNEDIPIAEQSSKDIPVTAQPSKDVHVVKEQNPPPARSEDMPFSPKASVAAMEAKEQLSAQELMESGLQIQKSPEPEVLSTQEDLFDQSNKTVSSDGCSTPSREEGGCSLASTPATTLHLLQLSGQRSLVQDSLSTNSSDLVAPSPDAFRSTPFIVPSSPTEQEGRQDKPMDTSVLSEEGGEPFQKKLQSGEPVELENPPLLPESTVSPQASTPISQSTPVFPPGSLPIPSQPQFSHDIFIPSPSLEEQSNDGKKDGDMHSSSLTVECSKTSEIEPKNSPEDLGLSLTGDSCKLMLSTSEYSQSPKMESLSSHRIDEDGENTQIEDTEPMSPVLNSKFVPAENDSILMNPAQDGEVQLSQNDDKTKGDDTDTRDDISILATGCKGREETVAEDVCIDLTCDSGSQAVPSPATRSEALSSVLDQEEAMEIKEHHPEEGSSGSEVEEIPETPCESQGEELKEENMESVPLHLSLTETQSQGLCLQKEMPKKECSEAMEVETSVISIDSPQKLAILDQELEHKEQEAWEEATSEDSSVVIVDVKEPSPRVDVSCEPLEGVEKCSDSQSWEDIAPEIEPCAENRLDTKEEKSVEYEGDLKSGTAETEPVEQDSSQPSLPLVRADDPLRLDQELQQPQTQEKTSNSLTEDSKMANAKQLSSDAEAQKLGKPSAHASQSFCESSSETPFHFTLPKEGDIIPPLTGATPPLIGHLKLEPKRHSTPIGISNYPESTIATSDVMSESMVETHDPILGSGKGDSGAAPDVDDKLCLRMKLVSPETEASEESLQFNLEKPATGERKNGSTAVAESVASPQKTMSVLSCICEARQENEARSEDPPTTPIRGNLLHFPSSQGEEEKEKLEGDHTIRQSQQPMKPISPVKDPVSPASQKMVIQGPSSPQGEAMVTDVLEDQKEGRSTNKENPSKALIERPSQNNIGIQTMECSLRVPETVSAATQTIKNVCEQGTSTVDQNFGKQDATVQTERGSGEKPVSAPGDDTESLHSQGEEEFDMPQPPHGHVLHRHMRTIREVRTLVTRVITDVYYVDGTEVERKVTEETEEPIVECQECETEVSPSQTGGSSGDLGDISSFSSKASSLHRTSSGTSLSAMHSSGSSGKGAGPLRGKTSGTEPADFALPSSRGGPGKLSPRKGVSQTGTPVCEEDGDAGLGIRQGGKAPVTPRGRGRRGRPPSRTTGTRETAVPGPLGIEDISPNLSPDDKSFSRVVPRVPDSTRRTDVGAGALRRSDSPEIPFQAAAGPSDGLDASSPGNSFVGLRVVAKWSSNGYFYSGKITRDVGAGKYKLLFDDGYECDVLGKDILLCDPIPLDTEVTALSEDEYFSAGVVKGHRKESGELYYSIEKEGQRKWYKRMAVILSLEQGNRLREQYGLGPYEAVTPLTKAADISLDNLVEGKRKRRSNVSSPATPTASSSSSTTPTRKITESPRASMGVLSGKRKLITSEEERSPAKRGRKSATVKPGAVGAGEFVSPCESGDNTGEPSALEEQRGPLPLNKTLFLGYAFLLTMATTSDKLASRSKLPDGPTGSSEEEEEFLEIPPFNKQYTESQLRAGAGYILEDFNEAQCNTAYQCLLIADQHCRTRKYFLCLASGIPCVSHVWVHDSCHANQLQNYRNYLLPAGYSLEEQRILDWQPRENPFQNLKVLLVSDQQQNFLELWSEILMTGGAASVKQHHSSAHNKDIALGVFDVVVTDPSCPASVLKCAEALQLPVVSQEWVIQCLIVGERIGFKQHPKYKHDYVSH
